± gives the uncertainty stated by the source.
Experiment: self-splicing fitness, log relative to wild type (ln ratio); higher = more splicing; Tetrahymena group I intron in knt gene, E. coli kanamycin selection, DiMSum; sequences stand for … in CUCUCU…GGAGGGAAAAGUUAUCAGGCAUGCACCUGGUAGCUAGUCUUUAAACCAAUAGAUUGCAUCGGUUUAAAAGGCAAGACCGUCAAAUUGCGGGAAAGGGGUCAACAGCCGUUCAGUACCAAGUCUCAGGGGAAACUUUGAGAUGGCCUUGCAAAGGGUAUGGUAAUAAGCUGACGGACAUGGUCCUAACCACGCAGCCAAGUCCUAAGUCAACAGAUCUUCUGUUGAUAUGGAUGCAGUUCACAGACUAAAUGUCGGUCGGGGAAGAUGUAUUCUUCUCAUAAGAUAUAGUCGGACCUCUCCUUAAUGGGAGCUAGCGGAUGAAGUGAUGCAACACUGGAGCCGCUGGGAACUAAUUUGUAUGCGAAAGUAUAUUGAUUAGUUUUGGAGUACUCGUGGUCG
Method in brief: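 Pooled colonies went to amplicon sequencing on an Illumina HiSeq 2500 after six replicate transformations. The plates were LB agar with 100 μg/mL carbenicillin, 50 μM IPTG and 0.2% rhamnose, with or without 25 μg/mL kanamycin, incubated overnight at 37°C or 30°C. The E. coli BL21(DE3) library had all eight P1ex-region intron nucleotides randomised, the intron placed in the knt kanamycin-resistance gene on pET-22b(+). DiMSum fitness is the error-weighted combination of replicate fold changes, kanamycin against none, normalised to wild type.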

Sequence | self-splicing fitness (ln) (30 °C) | self-splicing fitness (ln) (37 °C)
UACCAGCAAUAUUACGAGUC | -1.59 ± 0.12 | -1.24 ± 0.12
UACCAGCAAUAUUACGCACA | -0.477 ± 0.088 | 0.0379 ± 0.092
UACCAGCAAUAUUACGCGAC | -3.1 ± 0.11 | -1.58 ± 0.12
UACCAGCAAUAUUACGCGCG | 0.11 ± 0.068 | 0.573 ± 0.09
UACCAGCAAUAUUACGCGGG | -3.61 ± 0.21 | -1.31 ± 0.17
UACCAGCAAUAUUACGCUAG | -1.76 ± 0.074 | -1.03 ± 0.083
UACCAGCAAUAUUACGCUCG | -0.415 ± 0.093 | -0.203 ± 0.11
UACCAGCAAUAUUACGGACU | -0.102 ± 0.073 | 0.199 ± 0.098
UACCAGCAAUAUUACGGAGU | -3.23 ± 0.13 | -2.4 ± 0.17
UACCAGCAAUAUUACGGCGU | -0.619 ± 0.055 | -0.341 ± 0.072
UACCAGCAAUAUUACGGUAG | -2.15 ± 0.086 | -1.16 ± 0.083
UACCAGCAAUAUUACGGUCU | -0.501 ± 0.056 | 0.24 ± 0.067
UACCAGCAAUAUUACGUACG | -0.42 ± 0.12 | -0.594 ± 0.15
UACCAGCAAUAUUACGUCCA | -0.321 ± 0.081 | 0.176 ± 0.091
UACCAGCAAUAUUACGUCUU | -1.99 ± 0.08 | -0.209 ± 0.086
UACCAGCAAUAUUACGUGGG | -3.76 ± 0.11 | -2.52 ± 0.1
UACGAGCAAUAUUACGAACA | -2.11 ± 0.27 | -2.13 ± 0.29
UACGAGCAAUAUUACGAAUA | -3.28 ± 0.47 | -2.87 ± 0.48
UACGAGCAAUAUUACGAAUG | -2.56 ± 0.12 | -1.68 ± 0.15
UACGAGCAAUAUUACGACGU | -2.08 ± 0.23 | -2.12 ± 0.27
UACGAGCAAUAUUACGAGAA | -2.33 ± 0.35 | 
UACGAGCAAUAUUACGAUGC |  | -2.04 ± 0.33
UACGAGCAAUAUUACGCACA | -3.08 ± 0.26 | -1.29 ± 0.21
UACGAGCAAUAUUACGCAUA | -3.17 ± 0.19 | -0.975 ± 0.13
UACGAGCAAUAUUACGCCUC |  | -2.06 ± 0.34
UACGAGCAAUAUUACGCUAU | -2.4 ± 0.14 | -3.49 ± 0.29

Sequence | self-splicing fitness (ln) (30 °C) | self-splicing fitness (ln) (37 °C)
UACGAGCAAUAUUACGCUUC | -2.53 ± 0.25 | -1.32 ± 0.3
UACGAGCAAUAUUACGGCGA | -1.39 ± 0.15 | -0.508 ± 0.15
UACGAGCAAUAUUACGGGAG | -3.43 ± 0.22 | -2.72 ± 0.39
UACGAGCAAUAUUACGGGUC | -3.23 ± 0.26 | -3.06 ± 0.43
UACGAGCAAUAUUACGGUCG | -0.828 ± 0.076 | -0.0425 ± 0.099
UACGAGCAAUAUUACGUAAA | -3.61 ± 0.29 | -2.84 ± 0.26
UACGAGCAAUAUUACGUAUG | -3.49 ± 0.23 | -3.34 ± 0.24
UACGAGCAAUAUUACGUCAA |  | -2.31 ± 0.46
UACGAGCAAUAUUACGUGGG | -3.25 ± 0.14 | -2.88 ± 0.19
UACGAGCAAUAUUACGUUGU | -3.36 ± 0.16 | -2.68 ± 0.18
UACUAGCAAUAUUACGAAAC |  | -2.1 ± 0.32
UACUAGCAAUAUUACGAAGA | -2.32 ± 0.19 | -1.86 ± 0.25
UACUAGCAAUAUUACGAAUC | -2.81 ± 0.18 | -3.38 ± 0.35
UACUAGCAAUAUUACGACCA | 0.122 ± 0.088 | -0.816 ± 0.1
UACUAGCAAUAUUACGAGGU | -3.47 ± 0.42 | -2 ± 0.29
UACUAGCAAUAUUACGAUAG | -1.44 ± 0.12 | -0.923 ± 0.14
UACUAGCAAUAUUACGAUCU | -1.31 ± 0.13 | -0.847 ± 0.14
UACUAGCAAUAUUACGAUUU | -2.36 ± 0.12 | -0.92 ± 0.15
UACUAGCAAUAUUACGCCAA | 0.284 ± 0.44 | -1.02 ± 0.25
UACUAGCAAUAUUACGGACC |  | -1.13 ± 0.33
UACUAGCAAUAUUACGGCAA | -0.353 ± 0.12 | 0.301 ± 0.12
UACUAGCAAUAUUACGGGAA | -1.95 ± 0.13 | -0.547 ± 0.1
UACUAGCAAUAUUACGGGCC | -3.27 ± 0.17 | -3.17 ± 0.23
UACUAGCAAUAUUACGGUCA | 0.103 ± 0.086 | 0.31 ± 0.083
UACUAGCAAUAUUACGGUGU | -3.74 ± 0.23 | -2.65 ± 0.29
UACUAGCAAUAUUACGUAAU | -2.63 ± 0.17 | -1.93 ± 0.22

Sequence | self-splicing fitness (ln) (30 °C) | self-splicing fitness (ln) (37 °C)
UACUAGCAAUAUUACGUAGA | -1.84 ± 0.11 | -1.95 ± 0.16
UACUAGCAAUAUUACGUGUU | -3.16 ± 0.15 | -0.975 ± 0.13
UACUAGCAAUAUUACGUUAA | -2.1 ± 0.18 | -1.43 ± 0.18
UAGAAGCAAUAUUACGAUAA | -1.05 ± 0.11 | -0.854 ± 0.12
UAGAAGCAAUAUUACGAUUG | -1.74 ± 0.07 | -0.442 ± 0.083
UAGAAGCAAUAUUACGCAAA | -1.24 ± 0.22 | -1.03 ± 0.31
UAGAAGCAAUAUUACGCCGG | -0.817 ± 0.12 | -0.196 ± 0.18
UAGAAGCAAUAUUACGCUUG | -2.11 ± 0.11 | -1.05 ± 0.12
UAGAAGCAAUAUUACGGAAG | -2.16 ± 0.22 | -0.543 ± 0.23
UAGAAGCAAUAUUACGGCAA | -0.122 ± 0.075 | -0.249 ± 0.088
UAGAAGCAAUAUUACGGGCG | 0.0568 ± 0.11 | -0.38 ± 0.13
UAGAAGCAAUAUUACGGGUC | -3.55 ± 0.33 | -2.84 ± 0.44
UAGAAGCAAUAUUACGGUUA | 0.144 ± 0.094 | -0.007 ± 0.086
UAGAAGCAAUAUUACGUACU | -1.22 ± 0.1 | -0.355 ± 0.14
UAGAAGCAAUAUUACGUCCG | 0.777 ± 0.14 | -0.199 ± 0.16
UAGAAGCAAUAUUACGUCUG | -1.12 ± 0.064 | -0.959 ± 0.076
UAGAAGCAAUAUUACGUGAC | -3.33 ± 0.24 | -2.28 ± 0.28
UAGAAGCAAUAUUACGUGCC | -2.13 ± 0.22 | -0.962 ± 0.19
UAGAAGCAAUAUUACGUGUA | -1.95 ± 0.11 | -0.392 ± 0.09
UAGAAGCAAUAUUACGUUUU | -3.58 ± 0.17 | -2.85 ± 0.18
UAGCAGCAAUAUUACGAACA | -0.591 ± 0.069 | 0.237 ± 0.081
UAGCAGCAAUAUUACGAGCC | -2.62 ± 0.23 | -1.9 ± 0.3
UAGCAGCAAUAUUACGAGGG | -1.97 ± 0.21 | -1.96 ± 0.27
UAGCAGCAAUAUUACGAGUA | -1.39 ± 0.14 | -0.225 ± 0.14
UAGCAGCAAUAUUACGAUUG | -0.536 ± 0.12 | -0.509 ± 0.14
UAGCAGCAAUAUUACGCAGU | -3.58 ± 0.47 | -2.18 ± 0.21
